Where two headings read alike, the source gives them in different places. Non-standard residues stand in square brackets, D forms with d. Residues, ends and D or L forms follow the SMILES beside them. *: point of attachment. X1 = CC1(C)C(=CC=CC=CC=CC2=[N+](CCCCCC(=O)*)c3ccc4ccccc4c3C2(C)C)N(CCCCS(=O)(=O)[O-])c2ccc3ccccc3c21; Cha = N[C@@H](CC1CCCCC1)C(=O)O
Conditions: for TEAE Mild (Grade 1): No. events / TEAE Mild (Grade 1): No. patients (%) / TEAE Moderate (Grade 2): No. events / TEAE Moderate (Grade 2): No. patients (%) / TEAE Severe (Grade 3): No. events / TEAE Severe (Grade 3): No. patients (%): CTCAE v5.0
Method: ECGs were taken at baseline, 1 hr ± 15 min, and 44 hrs ± 6 h post-injection. Blood samples (including lever and kidney parameters) were sampled at baseline, 12 hrs ± 4 hrs, and 44 hrs ± 6 hrs post-injection. All laboratory analyses were performed by the Department of Biochemistry at Rigshospitalet. AE assessments were graded according to the National Cancer Institute “Common Terminology Criteria for Adverse Events (CTCAE)” version 5.0. There was no data monitoring committee in this trial.

Compound: CC(C)C[C@H](NC(=O)[C@H](Cc1ccc(O)cc1)NC(=O)[C@@H](CCCNC(=N)N)NC(=O)[C@@H](CO)NC(=O)[C@H](Cc1ccccc1)NC(=O)[C@H](CC1CCCCC1)NC(=O)[C@H](CC(=O)O)NC(=O)[C@H](CCC(=O)O)NC(=O)[C@H](CCC(=O)O)NC(=O)CCCCC[N+]1=C(C=CC=CC=CC=C2N(CCCCS(=O)(=O)[O-])c3ccc4ccccc4c3C2(C)C)C(C)(C)c2c1ccc1ccccc21)C(=O)N[C@@H](Cc1c[nH]c2ccccc12)C(=O)N[C@@H](CO)C(=O)O [FG001, ICG-Glu-Glu-AE105] (X1-EED[Cha]F[dS][dR]YLWS-OH; N-terminus and C-terminus assumed)
- ECG abnormalities (ECGs at baseline, 1 hr and 44 hrs post-injection): No ECG abnormalities
- TEAE ALT increased: No. events (FG001 4 mg i.v., N=5): 0
- TEAE ALT increased: No. subjects (%) (FG001 4 mg i.v., N=5): 0 (0.0%)
- TEAE AST increased: No. events (FG001 4 mg i.v., N=5): 1
- TEAE AST increased: No. subjects (%) (FG001 4 mg i.v., N=5): 1 (20.0%)
- TEAE Blood ALP increased: No. events (FG001 4 mg i.v., N=5): 0
- TEAE Blood ALP increased: No. subjects (%) (FG001 4 mg i.v., N=5): 0 (0.0%)
- TEAE Blood bilirubin increased: No. events (FG001 4 mg i.v., N=5): 1
- TEAE Blood bilirubin increased: No. subjects (%) (FG001 4 mg i.v., N=5): 1 (20.0%)
- TEAE Blood creatinine increased: No. events (FG001 4 mg i.v., N=5): 0
- TEAE Blood creatinine increased: No. subjects (%) (FG001 4 mg i.v., N=5): 0 (0.0%)
- TEAE Dysgeusia: No. events (FG001 4 mg i.v., N=5): 0
- TEAE Dysgeusia: No. subjects (%) (FG001 4 mg i.v., N=5): 0 (0.0%)
- TEAE GGT increased: No. events (FG001 4 mg i.v., N=5): 0
- TEAE GGT increased: No. subjects (%) (FG001 4 mg i.v., N=5): 0 (0.0%)
- TEAE Hypalbuminaemia: No. events (FG001 4 mg i.v., N=5): 4
- TEAE Hypalbuminaemia: No. subjects (%) (FG001 4 mg i.v., N=5): 4 (80.0%)
- TEAE Hyperglycaemia: No. events (FG001 4 mg i.v., N=5): 0
- TEAE Hyperglycaemia: No. subjects (%) (FG001 4 mg i.v., N=5): 0 (0.0%)
- TEAE Hypertension: No. events (FG001 4 mg i.v., N=5): 0
- TEAE Hypertension: No. subjects (%) (FG001 4 mg i.v., N=5): 0 (0.0%)
- TEAE Hyponatraemia: No. events (FG001 4 mg i.v., N=5): 1
- TEAE Hyponatraemia: No. subjects (%) (FG001 4 mg i.v., N=5): 1 (20.0%)
- TEAE Hypotension: No. events (FG001 4 mg i.v., N=5): 0
- TEAE Hypotension: No. subjects (%) (FG001 4 mg i.v., N=5): 0 (0.0%)
- TEAE Hypothermia: No. events (FG001 4 mg i.v., N=5): 0
- TEAE Hypothermia: No. subjects (%) (FG001 4 mg i.v., N=5): 0 (0.0%)
- TEAE Pneumonia: No. events (FG001 4 mg i.v., N=5): 0
- TEAE Pneumonia: No. subjects (%) (FG001 4 mg i.v., N=5): 0 (0.0%)
- TEAE SOC General disorders and administration site conditions: No. events (FG001 4 mg i.v., N=5): 0
- TEAE SOC General disorders and administration site conditions: No. subjects (%) (FG001 4 mg i.v., N=5): 0 (0.0%)
- TEAE SOC Infections and infestations: No. events (FG001 4 mg i.v., N=5): 0
- TEAE SOC Infections and infestations: No. subjects (%) (FG001 4 mg i.v., N=5): 0 (0.0%)
- TEAE SOC Investigations: No. events (FG001 4 mg i.v., N=5): 2
- TEAE SOC Investigations: No. subjects (%) (FG001 4 mg i.v., N=5): 2 (40.0%)
- TEAE SOC Metabolism and nutrition disorders: No. events (FG001 4 mg i.v., N=5): 5
- TEAE SOC Metabolism and nutrition disorders: No. subjects (%) (FG001 4 mg i.v., N=5): 4 (80.0%)
- TEAE SOC Nervous system disorders: No. events (FG001 4 mg i.v., N=5): 0
- TEAE SOC Nervous system disorders: No. subjects (%) (FG001 4 mg i.v., N=5): 0 (0.0%)
- TEAE SOC Vascular disorders: No. events (FG001 4 mg i.v., N=5): 0
- TEAE SOC Vascular disorders: No. subjects (%) (FG001 4 mg i.v., N=5): 0 (0.0%)
- FG001 related TEAEs: No. events (FG001 4 mg i.v., n = 5): 0
- FG001 related TEAEs: No. patients (%) (FG001 4 mg i.v., n = 5): 0 (0%)
- SAEs: No. events (FG001 4 mg i.v., n = 5): 0
- SAEs: No. patients (%) (FG001 4 mg i.v., n = 5): 0 (0%)
- TEAE: No. events (FG001 4 mg i.v., n = 5): 7
- TEAE: No. patients (%) (FG001 4 mg i.v., n = 5): 4 (80%)
- TEAE Mild (Grade 1): No. events (FG001 4 mg i.v., n = 5): 5
- TEAE Mild (Grade 1): No. patients (%) (FG001 4 mg i.v., n = 5): 2 (40.0%)
- TEAE Moderate (Grade 2): No. events (FG001 4 mg i.v., n = 5): 2
- TEAE Moderate (Grade 2): No. patients (%) (FG001 4 mg i.v., n = 5): 2 (40.0%)
- TEAE Severe (Grade 3): No. events (FG001 4 mg i.v., n = 5): 0
- TEAE Severe (Grade 3): No. patients (%) (FG001 4 mg i.v., n = 5): 0 (0.0%)
- TEAE ALT increased: No. events (FG001 16 mg i.v., N=8): 0
- TEAE ALT increased: No. subjects (%) (FG001 16 mg i.v., N=8): 0 (0.0%)
- TEAE AST increased: No. events (FG001 16 mg i.v., N=8): 1
- TEAE AST increased: No. subjects (%) (FG001 16 mg i.v., N=8): 1 (12.5%)
- TEAE Blood ALP increased: No. events (FG001 16 mg i.v., N=8): 0
- TEAE Blood ALP increased: No. subjects (%) (FG001 16 mg i.v., N=8): 0 (0.0%)
- TEAE Blood bilirubin increased: No. events (FG001 16 mg i.v., N=8): 2
- TEAE Blood bilirubin increased: No. subjects (%) (FG001 16 mg i.v., N=8): 2 (25.0%)
- TEAE Blood creatinine increased: No. events (FG001 16 mg i.v., N=8): 1
- TEAE Blood creatinine increased: No. subjects (%) (FG001 16 mg i.v., N=8): 1 (12.5%)
- TEAE Dysgeusia: No. events (FG001 16 mg i.v., N=8): 1
- TEAE Dysgeusia: No. subjects (%) (FG001 16 mg i.v., N=8): 1 (12.5%)
- TEAE GGT increased: No. events (FG001 16 mg i.v., N=8): 0
- TEAE GGT increased: No. subjects (%) (FG001 16 mg i.v., N=8): 0 (0.0%)
- TEAE Hypalbuminaemia: No. events (FG001 16 mg i.v., N=8): 5
- TEAE Hypalbuminaemia: No. subjects (%) (FG001 16 mg i.v., N=8): 5 (62.5%)
- TEAE Hyperglycaemia: No. events (FG001 16 mg i.v., N=8): 1
- TEAE Hyperglycaemia: No. subjects (%) (FG001 16 mg i.v., N=8): 1 (12.5%)
- TEAE Hypertension: No. events (FG001 16 mg i.v., N=8): 1
- TEAE Hypertension: No. subjects (%) (FG001 16 mg i.v., N=8): 1 (12.5%)
- TEAE Hyponatraemia: No. events (FG001 16 mg i.v., N=8): 0
- TEAE Hyponatraemia: No. subjects (%) (FG001 16 mg i.v., N=8): 0 (0.0%)
- TEAE Hypotension: No. events (FG001 16 mg i.v., N=8): 1
- TEAE Hypotension: No. subjects (%) (FG001 16 mg i.v., N=8): 1 (12.5%)
- TEAE Hypothermia: No. events (FG001 16 mg i.v., N=8): 1
- TEAE Hypothermia: No. subjects (%) (FG001 16 mg i.v., N=8): 1 (12.5%)
- TEAE Pneumonia: No. events (FG001 16 mg i.v., N=8): 1
- TEAE Pneumonia: No. subjects (%) (FG001 16 mg i.v., N=8): 1 (12.5%)
- TEAE SOC General disorders and administration site conditions: No. events (FG001 16 mg i.v., N=8): 1
- TEAE SOC General disorders and administration site conditions: No. subjects (%) (FG001 16 mg i.v., N=8): 1 (12.5%)
- TEAE SOC Infections and infestations: No. events (FG001 16 mg i.v., N=8): 1
- TEAE SOC Investigations: No. events (FG001 16 mg i.v., N=8): 4
- TEAE SOC Investigations: No. subjects (%) (FG001 16 mg i.v., N=8): 3 (37.5%)
- TEAE SOC Metabolism and nutrition disorders: No. events (FG001 16 mg i.v., N=8): 6
- TEAE SOC Metabolism and nutrition disorders: No. subjects (%) (FG001 16 mg i.v., N=8): 5 (62.5%)
- TEAE SOC Nervous system disorders: No. events (FG001 16 mg i.v., N=8): 1
- TEAE SOC Vascular disorders: No. events (FG001 16 mg i.v., N=8): 2
- TEAE SOC Vascular disorders: No. subjects (%) (FG001 16 mg i.v., N=8): 2 (25.0%)
- FG001 related TEAEs: No. events (FG001 16 mg i.v., n = 8): 0
- FG001 related TEAEs: No. patients (%) (FG001 16 mg i.v., n = 8): 0 (0%)
- SAEs: No. events (FG001 16 mg i.v., n = 8): 0
- SAEs: No. patients (%) (FG001 16 mg i.v., n = 8): 0 (0%)
- TEAE: No. events (FG001 16 mg i.v., n = 8): 15
- TEAE: No. patients (%) (FG001 16 mg i.v., n = 8): 8 (100%)
- TEAE Mild (Grade 1): No. events (FG001 16 mg i.v., n = 8): 11
- TEAE Mild (Grade 1): No. patients (%) (FG001 16 mg i.v., n = 8): 4 (50.0%)
- TEAE Moderate (Grade 2): No. events (FG001 16 mg i.v., n = 8): 4
- TEAE Moderate (Grade 2): No. patients (%) (FG001 16 mg i.v., n = 8): 4 (50.0%)
- TEAE Severe (Grade 3): No. events (FG001 16 mg i.v., n = 8): 0
- TEAE Severe (Grade 3): No. patients (%) (FG001 16 mg i.v., n = 8): 0 (0.0%)
- TEAE ALT increased: No. events (FG001 36 mg i.v., N=4): 1
- TEAE ALT increased: No. subjects (%) (FG001 36 mg i.v., N=4): 1 (25.0%)
- TEAE AST increased: No. events (FG001 36 mg i.v., N=4): 1
- TEAE AST increased: No. subjects (%) (FG001 36 mg i.v., N=4): 1 (25.0%)
- TEAE Blood ALP increased: No. events (FG001 36 mg i.v., N=4): 1
- TEAE Blood ALP increased: No. subjects (%) (FG001 36 mg i.v., N=4): 1 (25.0%)

Reference: paper PMC11667226 (Theranostics, 2025)
